Data as given in patent US20220242962A1 (APTEVO RESEARCH AND DEVELOPMENT, published 2022).
Positions count from the first letter of the chain named. Names and notes keep the numbering of the source. Blank lines part the entries; values can stand above or below the binder they belong to.

Key:
[1] = target: T1, Fc gamma receptor RIIA R131 on CHO-K1SV cells (human, UniProt P12318 34-317); assay: flow cytometry, CHO-K1SV transfectants
T1 construct: whole, on cells
T1 sequence (looked up): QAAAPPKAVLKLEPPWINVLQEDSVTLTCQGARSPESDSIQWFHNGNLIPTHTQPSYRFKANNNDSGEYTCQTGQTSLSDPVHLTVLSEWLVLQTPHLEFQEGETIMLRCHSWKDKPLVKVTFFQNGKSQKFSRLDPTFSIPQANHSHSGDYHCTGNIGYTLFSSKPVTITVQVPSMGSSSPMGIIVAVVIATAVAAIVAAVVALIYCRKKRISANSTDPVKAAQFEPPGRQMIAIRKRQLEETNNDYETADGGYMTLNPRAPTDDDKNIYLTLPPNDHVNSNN
Protocol: (§1) CHO-K1SV cells stably transfected with a series of FcγR receptors were incubated with each of the […] listed in Table 23. A typical experiment labeled approximately 100,000 cells per well, in 96-well plates, with a range of binding molecule concentrations of 1 to 1000 nM, in 100 μl of PBS buffer with 0.2% BSA and 2 mM EDTA, for 30 minutes on ice, followed by washes and incubation with PE-labeled minimum cross species reactive secondary antibody, goat anti-human IgG Fcγ, F(ab′)2 ([…]) for 30 minutes to 1 hour on ice. Signal from bound molecules was detected using a LSR-II™ flow cytometer (BD Biosciences) and analyzed by FlowJo flow cytometry analysis software. Mean fluorescence intensity (MFI) of bound molecules on cells was determined after exclusion of doublets.

[2] = target: T2, Fc gamma receptor RIIA H131 on CHO-K1SV cells (human, UniProt P12318 34-317); assay: flow cytometry, CHO-K1SV transfectants
T2 construct: whole, on cells
T2 sequence (looked up): T1 sequence (looked up) with R134H
Protocol: as §1

[3] = target: T3, Fc gamma receptor RIIIA F158 on CHO-K1SV cells (human, UniProt P08637 17-254); assay: flow cytometry, CHO-K1SV transfectants
T3 construct: whole, on cells
T3 sequence (P08637 17-254): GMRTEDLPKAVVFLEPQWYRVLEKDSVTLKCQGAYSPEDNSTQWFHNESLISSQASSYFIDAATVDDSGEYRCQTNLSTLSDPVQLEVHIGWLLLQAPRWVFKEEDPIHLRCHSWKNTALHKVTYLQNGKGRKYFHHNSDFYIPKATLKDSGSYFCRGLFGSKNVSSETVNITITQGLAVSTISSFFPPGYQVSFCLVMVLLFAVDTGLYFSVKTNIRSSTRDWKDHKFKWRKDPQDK
Protocol: as §1

[4] = target: T4, Fc gamma receptor RIIIB on CHO-K1SV cells (human, UniProt O75015 17-200); assay: flow cytometry, CHO-K1SV transfectants
T4 construct: whole, on cells
T4 sequence (O75015 17-200): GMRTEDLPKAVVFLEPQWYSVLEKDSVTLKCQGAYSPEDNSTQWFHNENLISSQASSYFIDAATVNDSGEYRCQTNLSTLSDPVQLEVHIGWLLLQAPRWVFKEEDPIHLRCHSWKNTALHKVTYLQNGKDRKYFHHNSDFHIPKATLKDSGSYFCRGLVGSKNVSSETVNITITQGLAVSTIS
Protocol: as §1

[5] = target: T5, Recombinant FcRn/b2M protein (human, UniProt P55899 24-297; P61769 21-119, limits assumed); assay: SPR pH 6.0, FcRn/b2M immobilized, two-state reaction model
T5 construct: also called hFcRn/b2M; neonatal Fc receptor
Protocol: Recombinant FcRn/b2M protein was generated via transient transfection of HEK-293 cells with a bi-cistronic vector containing the genes for both FcRn and […]. The complex was purified using IMAC chromatography and subsequently buffer exchanged into IMAC elution buffer after verifying purity of the IMAC eluate by analytical SEC. hFcRn/b2M at 10 μg/ml in 10 mM sodium acetate (pH 4.5) was immobilized on a CM5 chip by direct amine coupling chemistry to a level of ˜600 RU. A reference flow cell was left blank.
Different concentrations of the Fc variant protein (5-80 nM by 2-fold dilutions in pH 6.0 running buffer) including running buffer as blank were injected in randomized order at 30 μL/min for 180 seconds followed by a 120 second dissociation period.
Sensorgrams obtained from kinetic SPR measurements were analyzed by the double subtraction method. The signal from the reference flow cell was subtracted from the analyte binding response obtained from flow cell with immobilized ligands. Buffer reference was subtracted from analyte binding responses, and the final double-referenced data were analyzed with Biacore T200 Evaluation software (2.0, GE), globally fitting data to derive kinetic parameters. All sensorgrams were fitted using two-state reaction model, as described in Weirong Wang et al, DrugMetab Dispos.: 39(9): 1469-77 (2011).

Full-length Human OX40 = target: T6, Full-length Human OX40 (human, UniProt P43489 29-277); assay: cell-based or functional assay
T6 sequence: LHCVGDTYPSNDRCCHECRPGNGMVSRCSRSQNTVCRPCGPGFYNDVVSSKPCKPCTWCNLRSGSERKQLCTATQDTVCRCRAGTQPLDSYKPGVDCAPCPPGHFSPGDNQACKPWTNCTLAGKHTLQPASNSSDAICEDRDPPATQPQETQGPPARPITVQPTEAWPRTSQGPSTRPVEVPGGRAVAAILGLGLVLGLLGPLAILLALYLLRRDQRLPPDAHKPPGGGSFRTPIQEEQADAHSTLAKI

Full-length Human 4-1BB = Full-length Human 4-1BB (human, UniProt Q07011 24-255); assay: cell-based or functional assay
Sequence of Full-length Human 4-1BB (Q07011 24-255): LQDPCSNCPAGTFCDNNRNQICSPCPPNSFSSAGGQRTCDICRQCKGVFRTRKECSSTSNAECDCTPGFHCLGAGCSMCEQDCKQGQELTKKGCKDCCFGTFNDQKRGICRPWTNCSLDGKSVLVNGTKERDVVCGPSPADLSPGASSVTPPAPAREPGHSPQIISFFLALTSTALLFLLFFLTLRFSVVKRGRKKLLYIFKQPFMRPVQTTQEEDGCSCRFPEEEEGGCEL

Fc gamma receptor RIIIB = target: T7, Fc gamma receptor RIIIB (human, UniProt O75015 17-200); assay: SPR, construct immobilized, receptor injected at 2 uM
T7 construct: soluble SPR analyte
T7 sequence (O75015 17-200): as the sequence (O75015 17-200) above

binding result [1]: no binding (tested: 1 to 1000 nM)
binding result [2]: no binding (tested: 1 to 1000 nM)
binding result [3]: no binding (tested: 1 to 1000 nM)
binding result [4]: no binding (tested: 1 to 1000 nM)
Kd [5]: 20 nM
B1: TSC 1005 (other)
chain: EPKSSDKTHTCPPCPAPPVAAPSVFLFPPKPKDTLMISRTPEVTCVVVDVSHEDPEVKFNWYVDGVEVHNAKTKPREEQYNSTYRVVSVLTVLHQDWLNGKEYKCAVSNKALPAPIEKTISKAKGQPREPQVYTLPPSRDELTKNQVSLTCLVKGFYPSDIAVEWESNGQPENNYKTTPPVLDSDGSFFLYSKLTVDKSRWQQGNVFSCSVMHEALHNHYTQKSLSLSPG
notes: IgG1 Fc with E233P, L234V, L235A, deletion of G236, G237A, K322A (EU); also called PVAdel TSC01005

OX40 Reporter Assay EC50 (Full-length Human OX40): 0.012 nM
OX40 Reporter Assay Max induction (Full-length Human OX40): 534000
4-1BB Reporter Assay EC50 (Full-length Human 4-1BB): 0.019 nM
4-1BB Reporter Assay Max induction (Full-length Human 4-1BB): 6.1e+06
B2: FXX01066 (bispecific antibody)
chain: EVQLVQSGAEVKKPGASVKVSCKASGYTFTSYWMNWVRQAPGQGLEWMGNIYPSGGSTNYAQKFQGRVTMTVDTSTSTVYMELSSLRSEDTAVYYCASFSDGYYAYAMDYWGQGTLVTVSSGGGGSGGGGSGGGGSGGGGSEIVMTQSPATLSLSPGERATLSCRASQSVSSYLNWYQQKPGQAPRLLIYYASRRHTGIPARFSGSGSGTDFTLTISSLQPEDFAVYYCQQGYNLPYTFGQGTKVEIKEPKSSDKTHTCPPCPAPPAAAPSVFLFPPKPKDTLMISRTPEVTCVVVDVSHEDPEVKFNWYVDGVEVHNAKTKPREEQYNSTYRVVSVLTVLHQDWLNGKEYKCAVSNKALPAPIEKTISKAKGQPREPQVYTLPPSRDELTKNQVSLTCLVKGFYPSDIAVEWESNGQPENNYKTTPPVLDSDGSFFLYSKLTVDKSRWQQGNVFSCSVMHEALHNHYTQKSLSLSPGGGGSPSSYVLTQPPSVSVAPGQTARITCGGNNIGSKSVNWFQQKPGQAPVLVVYDDSGRPSGIPERFSGSTSGNTATLTISRVEAGDEADYYCQVWDSSSDHVVFGGGTKLTVLGGGGSGGGGSGGGGSGGGGSQVQLVESGGGVVQPGRSLRLSCAASGFTLSYYGMHWVRQAPGKGLEWVAAISHDGSDKYYADSVKGRFTISRDNSKNTLYLQMNSLRAEDTAVYYCSNDQFDPWGQGTLVTVSSR
notes: ADAPTIR scFv-Fc-scFv, anti-4-1BB (VH-VL) N-terminal, anti-OX40 C-terminal, PAA (del) Fc; also called FX01066

Max RU value during association (Fc gamma receptor RIIIB): 0 RU
B3: FXX01115 (bispecific antibody)
chain: B2 chain with I541V, E543N, T690R
notes: ADAPTIR anti-4-1BB x anti-OX40, pI variant; PAA (del) Fc
